According to the Human Domainome abundance scans (Beltran et al. 2025):
± gives the uncertainty stated by the source.

Assay: abundance fitness (aPCA) (normalised: wild type 0, dead -1); higher = more abundant; growth selection in yeast, the domain comes from the species named
Settings: Homo sapiens
Substance “Scaffold attachment factor B1 I65W, Q15424” has an abundance fitness of -0.457 ± 0.051. “Scaffold attachment factor B1 I65Y, Q15424” gave an abundance fitness of -0.535 ± 0.14. “Scaffold attachment factor B1 I75A, Q15424” gave an abundance fitness of -0.304 ± 0.071. Substance “Scaffold attachment factor B1 I75C, Q15424” has an abundance fitness of -0.28 ± 0.086. With “Scaffold attachment factor B1 I75D, Q15424” the abundance fitness was -0.449 ± 0.11. With “Scaffold attachment factor B1 I75E, Q15424” the abundance fitness was -0.459 ± 0.09. Work on “Scaffold attachment factor B1 I75F, Q15424” yielded an abundance fitness of -0.371 ± 0.095. For “Scaffold attachment factor B1 I75G, Q15424”, the abundance fitness was -0.264 ± 0.057. “Scaffold attachment factor B1 I75H, Q15424” gave an abundance fitness of -0.543 ± 0.13. With “Scaffold attachment factor B1 I75K, Q15424” the abundance fitness was -0.253 ± 0.06. “Scaffold attachment factor B1 I75L, Q15424” showed an abundance fitness of -0.099 ± 0.054. “Scaffold attachment factor B1 I75M, Q15424” showed an abundance fitness of -0.19 ± 0.065. “Scaffold attachment factor B1 I75N, Q15424” gave an abundance fitness of -0.219 ± 0.058. “Scaffold attachment factor B1 I75P, Q15424” showed an abundance fitness of -0.31 ± 0.084. Work on “Scaffold attachment factor B1 I75Q, Q15424” yielded an abundance fitness of -0.311 ± 0.071. With “Scaffold attachment factor B1 I75R, Q15424” the abundance fitness was -0.285 ± 0.057. “Scaffold attachment factor B1 I75S, Q15424” showed an abundance fitness of -0.257 ± 0.056. In the case of “Scaffold attachment factor B1 I75T, Q15424”, the abundance fitness is reported as -0.194 ± 0.064. “Scaffold attachment factor B1 I75V, Q15424” showed an abundance fitness of -0.113 ± 0.049. “Scaffold attachment factor B1 I77A, Q15424” showed an abundance fitness of -0.157 ± 0.062. Work on “Scaffold attachment factor B1 I77C, Q15424” yielded an abundance fitness of -0.187 ± 0.061. In the case of “Scaffold attachment factor B1 I77D, Q15424”, the abundance fitness is reported as -0.212 ± 0.071. “Scaffold attachment factor B1 I77E, Q15424” showed an abundance fitness of -0.102 ± 0.092. Work on “Scaffold attachment factor B1 I77F, Q15424” yielded an abundance fitness of -0.076 ± 0.058. “Scaffold attachment factor B1 I77G, Q15424” showed an abundance fitness of -0.195 ± 0.064. Substance “Scaffold attachment factor B1 I77H, Q15424” has an abundance fitness of -0.163 ± 0.056. For “Scaffold attachment factor B1 I77K, Q15424”, the abundance fitness was -0.136 ± 0.073. Work on “Scaffold attachment factor B1 I77L, Q15424” yielded an abundance fitness of -0.227 ± 0.064. “Scaffold attachment factor B1 I77M, Q15424” showed an abundance fitness of -0.305 ± 0.087. “Scaffold attachment factor B1 I77N, Q15424” showed an abundance fitness of -0.235 ± 0.073. Work on “Scaffold attachment factor B1 I77P, Q15424” yielded an abundance fitness of -0.381 ± 0.096. Substance “Scaffold attachment factor B1 I77Q, Q15424” has an abundance fitness of -0.262 ± 0.077. For “Scaffold attachment factor B1 I77R, Q15424”, the abundance fitness was -0.156 ± 0.055. With “Scaffold attachment factor B1 I77S, Q15424” the abundance fitness was -0.08 ± 0.051. With “Scaffold attachment factor B1 I77V, Q15424” the abundance fitness was -0.163 ± 0.066. Work on “Scaffold attachment factor B1 I77W, Q15424” yielded an abundance fitness of -0.119 ± 0.053. Work on “Scaffold attachment factor B1 K45A, Q15424” yielded an abundance fitness of -0.013 ± 0.27. With “Scaffold attachment factor B1 K45R, Q15424” the abundance fitness was 0.218 ± 0.2. In the case of “Scaffold attachment factor B1 K45V, Q15424”, the abundance fitness is reported as -0.929 ± 0.46. In the case of “Scaffold attachment factor B1 K54A, Q15424”, the abundance fitness is reported as -0.181 ± 0.061. With “Scaffold attachment factor B1 K54C, Q15424” the abundance fitness was -0.361 ± 0.063. In the case of “Scaffold attachment factor B1 K54D, Q15424”, the abundance fitness is reported as -0.329 ± 0.075. In the case of “Scaffold attachment factor B1 K54E, Q15424”, the abundance fitness is reported as -0.207 ± 0.079. For “Scaffold attachment factor B1 K54F, Q15424”, the abundance fitness was -0.249 ± 0.062. “Scaffold attachment factor B1 K54G, Q15424” showed an abundance fitness of -0.234 ± 0.05. “Scaffold attachment factor B1 K54H, Q15424” gave an abundance fitness of -0.401 ± 0.11. In the case of “Scaffold attachment factor B1 K54I, Q15424”, the abundance fitness is reported as -0.271 ± 0.077. In the case of “Scaffold attachment factor B1 K54L, Q15424”, the abundance fitness is reported as -0.28 ± 0.048. For “Scaffold attachment factor B1 K54M, Q15424”, the abundance fitness was -0.443 ± 0.087. In the case of “Scaffold attachment factor B1 K54N, Q15424”, the abundance fitness is reported as -0.444 ± 0.075. “Scaffold attachment factor B1 K54P, Q15424” showed an abundance fitness of -0.25 ± 0.082. With “Scaffold attachment factor B1 K54Q, Q15424” the abundance fitness was -0.115 ± 0.066. “Scaffold attachment factor B1 K54R, Q15424” gave an abundance fitness of -0.063 ± 0.047. In the case of “Scaffold attachment factor B1 K54S, Q15424”, the abundance fitness is reported as -0.259 ± 0.072. Work on “Scaffold attachment factor B1 K54T, Q15424” yielded an abundance fitness of -0.189 ± 0.057. Substance “Scaffold attachment factor B1 K54V, Q15424” has an abundance fitness of -0.221 ± 0.049. With “Scaffold attachment factor B1 K54W, Q15424” the abundance fitness was -0.255 ± 0.056. With “Scaffold attachment factor B1 K54Y, Q15424” the abundance fitness was -0.157 ± 0.059. “Scaffold attachment factor B1 K62A, Q15424” showed an abundance fitness of -0.073 ± 0.052. For “Scaffold attachment factor B1 K62C, Q15424”, the abundance fitness was -0.27 ± 0.057. “Scaffold attachment factor B1 K62D, Q15424” gave an abundance fitness of -0.403 ± 0.089. “Scaffold attachment factor B1 K62E, Q15424” showed an abundance fitness of -0.287 ± 0.053. For “Scaffold attachment factor B1 K62F, Q15424”, the abundance fitness was -0.366 ± 0.078. Work on “Scaffold attachment factor B1 K62G, Q15424” yielded an abundance fitness of -0.191 ± 0.048. Work on “Scaffold attachment factor B1 K62H, Q15424” yielded an abundance fitness of -0.211 ± 0.066. Work on “Scaffold attachment factor B1 K62I, Q15424” yielded an abundance fitness of -0.336 ± 0.078. For “Scaffold attachment factor B1 K62L, Q15424”, the abundance fitness was -0.204 ± 0.054. “Scaffold attachment factor B1 K62M, Q15424” showed an abundance fitness of -0.254 ± 0.078. Substance “Scaffold attachment factor B1 K62N, Q15424” has an abundance fitness of -0.231 ± 0.096. Substance “Scaffold attachment factor B1 K62P, Q15424” has an abundance fitness of -0.728 ± 0.065. In the case of “Scaffold attachment factor B1 K62R, Q15424”, the abundance fitness is reported as -0.089 ± 0.048. “Scaffold attachment factor B1 K62T, Q15424” gave an abundance fitness of -0.212 ± 0.072. In the case of “Scaffold attachment factor B1 K62V, Q15424”, the abundance fitness is reported as -0.246 ± 0.052. Substance “Scaffold attachment factor B1 K62W, Q15424” has an abundance fitness of -0.366 ± 0.065. “Scaffold attachment factor B1 K62Y, Q15424” showed an abundance fitness of -0.285 ± 0.087. Work on “Scaffold attachment factor B1 K63A, Q15424” yielded an abundance fitness of -0.202 ± 0.053. For “Scaffold attachment factor B1 K63C, Q15424”, the abundance fitness was -0.234 ± 0.048. Substance “Scaffold attachment factor B1 K63D, Q15424” has an abundance fitness of -0.255 ± 0.094. “Scaffold attachment factor B1 K63F, Q15424” gave an abundance fitness of -0.432 ± 0.061.
